Laboratory results from a protein production outcome set (Wang et al. 2014).

Test: label from the status in PepcDB records
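Also: failed if final PepcDB status was selected cloned or expressed and not failed if soluble or beyond.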

Row | Sequence | protein production
1 | LDAVVQEKFSGRRWTIPAKVYARPLELFNGLKLSREDFLRELDALGYRREPSVSGPGTVSVAASAVELNTRGFQFYEGAEPAQRVRVRFNGNYVSGLSQANGKELAVARLEPLLIGGLYPAHHEDRILVKLDQVPTYLIDTLVAVEDRDFWNHHGVSLKSVARAVWVNTTAGQLRQGGSTLTQQLVKNFFLSNERSLSRKINEAMMAVLLELHYDKRDILESYLNEVFLGQDGQRAIHGFGLASQYFFSQPLAELKLDQVALLVGMVKGPSYFNPRRYPDRALARRNLVLDVLAEQGVATQQEVDAAKLRPLGVTRQGSMADSSYPAFLDLVKRQLRQDYRDEDLTEEGLRIFTSFDPILQEKAETSVNETLKRLSGRKGVDQVEAAMVVTNPETGEIQALIGSRDPRFAGFNRALDAVRPIGSLIKPAVYLTALERPSKYTLTTWVQDEPFAVKGQDGQVWRPQNYDRRSHGTIFLYQGLANSYNLSTAKLGLDVGVPNVLQTVARLGINRDWPAYPSMLLGAGSLSPMEVATMYQTIASGGFNTPLRGIRSVLTADGQPLKRYPFQVEQRFDSGAVYLVQNAMQRVMREGTGRSVYSQLPSSLTLAGKTGTSNDSRDSWFSGFGGDLQAVVWLGRDDNGKTPLTGATGALQVWASFMRKAHPQSLEMPMPENVVMAWVDAQTGQGSAADCPNAVQMPYIRGSEPAQGPGCGSQNPAGEVMDWV | failed
2 | MPTLDALTPIFRQVFDDDSIVLTRETSANDIDAWDSLSHMNLIVSLEVHYKIKFALGELQKLKNVGDLADLVDKKLARKLEHHHHHH | failed
3 | MASFPHPGSVTVCEINRDLITAQNLSDERAQETYGKVLGMVFSPVSFDSTPSSLQENEGQENGDKASGESKGLVATLQMKVADSLKQILQPTDVTLLSEIDLQGVSWHQGKHIIAFISGANQVTIRDYEDKDEKEPCILTSDSQRNVKALEWRPNGGKSLSIACRGGICIWAASYPGNMALVRSGGSALRGSLSRGSGTRWILVDFLRCQNDEQISALSWSPCGRYLASASYDSSSFTIWDVSQGAGTPIRRGLGGISMLKWSPTGDYFFAARFDGTFCLWETNTWTSEPWSLSSGSGSVTGAIWDPEGRFILISFSKSSTLGSVHFSSKPPSLDAHLLPVELPEIASLTGCEGIEKIAWDASGERLAVSYKGGDENYKGLIAIYDTRRTPIVSASLVGFIRGPGENPKALSFSFHDKFKQGPLLSVCWSTGFCCTYPLIFRSHVLP | failed
4 | MSDFWENELVEIAAYYSVAVLCLVLFLTVFELVTAYKNWEEIQKGNLAVAMATGGKILGIANVFQHSISQHNSLLQMIGWGVYGFVMLLISYFIFEFLTPRFKIDQEIENDNRAVGFISFVISVGLSFVVAAGI | failed
5 | SPNPPKLTKQMNAIIDTVINYKDSSGRQLSEVFIQLPSRKELPEYYELIRKPVDFKKIKERIRNHKYRSLGDLEKDVMLLCHNAQTFNLEGSQIYEDSIVLQSVFKSARQ | not failed
6 | MTQPLRQYREKRDFRATAEPAGAARRPRAAARASEGLSFVIQRHQARRLHYDFRLEIDGVLVSWAVPKGPSRDPSVKRLAVHVEDHPLEYGGFSGDIPKGQYGAGHVDIWDSGVWIPRGDPRQGLRRGKLHFALRGRRLAGDWVLVRMSGEQDQWLLRKEDDEAAVPGDDAERAPATPPPAPEHAPAATPRGRRAAMPHTLAPQLATLVDSPPHGPGWSYEVKYDGYRILAACSAGGVRLVSRGNEDWQARMAPLARALGALKLGRGWLDGEVVVLDERGVADFQLLQNALDGQAEGLVFVAFDLPFWNGEDLRALPLQARQERLEDLLREVPEDAPLMLTQRLPVADDTEGKAAWNEACRLSLEGLICKRLDAPYRSGRSQGWLKLKCRPRQEFVIGGYTEPAGARRHLGALLVGLRQGRQLRYAGRVGTGFGAATLRTLGQRLAALRQDAKPFSGDVPRGRGDAAIHWVSPELVAEVNYAGITRDGLLRQASFAGLRADKPASEVRGEVAARPPAAKAATPSRRAGDGRAEVAGVRISHPDRLAYREPDYTKLQLAEYYAAIGPHILPHLRQRRVALLRCPDGAGTTCFFQKHLSQSLPAGVRRDGGHLVIESLPGLIALVQYGAIEFHTWGADTRHPDTPDRITLDLDPGPGVAWPAIVEGAQMARLLMQEVGLEPFLKTTGGKGLHLVAPLRPTQPWDTVKDFARALARQLAVALPDRFTANMAKARRERRIFVDYLRNGNGATAVAAFSARARDGAPVSMPLSWDALDAGDDLRGARWNIANALEQARRKPDPWADYAASRRTLGSRMQARLPRD | failed
7 | MSLERLRVAAYCRVSTDSEDQLNSYKSQVQYYTDMIKKNKEWVLADIYADEAITGTQVTKREDFQRMINDCMNGEIDMVFTKSISRFARNTLDTLKYVRMLKERNIAVYFEDEKINTLTMDGELLLVVLSSVAQQEVENISANVKKGLKMKMKRGELVGFQEGHHHHHH | not failed
8 | MPFEDALAIVNAAMQTLLGRQLSDIETLIFEGSWQSKTYPQIADGAGYSINYLTTDVGPKFWKVLSQALGEPVNKKNFKAAIRRYCVVQSGGEWESEGFQTQLPSYPSILSWGEAPDVSQFYGREEEQALLQRWIEAERCRLIAVLGMGGIDKSTLTTKVVQGFVQGDGVEEWEGDNINIKKIQNPLQEGQSPTKFKIQHLPSSPATPFTHIIWRSLRNAPPLEALLAELIDLLSEHQETVGDRARLLHWLRKTRCLIVLDNLETILQAGDHAGYYRDGYGDYGELIQLLGETPHQSCVLLTSREKPAEIAVLEGLDGNTRTLQLSGSVATAIAIIQQKGLQGTEEQQQVLCDRYSYNPLALKIVSTTIQDLFDGDISAFLTEDAVIFNSIRRLLDAQFQRLTELEQAIIIWLAINRDWTAIAELAADLVPPVPKVKLLEALESLRWRGLIETQDKRYTLQPVVMEYVTERFIEQINQELEMGQPQYWQQFALLKLTVRDHITETQRRLIVHSTAAQFGDCFPSPELQRQQLQTVLTAIRESVIAGYGVGNLINLSNALDLDLAGFDFSQLTIRQADLRHRLFQHLNFAQANFRDSAFKQTFGSIFSLSYSPAGDYLITGDDVGVVRLWKSAEMQPMQSYPLHRSYVWDLRPSADGRWLATCSEDQTVKITNLATGQLQATLVVAPTIARAIVWIGPDCLAIGGIDGHIRLWYPFTEQAPVLVTAHTDIVNSLSWDANSNLLASSSSDSTVKLWDVETGICHRIWREAVPVRWATWSPDGHTLAISREDGGIVLWNPHSDQAPRYLNGHPETVWSLDWNPDGAWLASSSHDATVRLWDVVTGRCRRILRSHQNWVWYARWHPHQPRIISGGHDGTLKLWDTGTGQCLKSLTGHMANIRAIAPAPDGQTLALGCDDTIVRLCGADSPPSFIHAFGHSHLISDLCWNPTGENLASASHDCNLRVWQRSPLRCTQVLKGHTNWVWSVDWHPTQDLLASGSVDSTIRLWYPTQSTPVKTLMAQTSWILSVRWHPTGRWLASAAGDFTIGLWNSKTWECTHLLTGHTHWIWCLAWSPNGQYLASGGYDNTVFIWKVEKEVTSLRTLEHPTILSAIAWHPDGELLATSCHDGNIRLWHWQTGQCVTRISGHQGEILTLKFSPDGKRLYSSSQDETWKTWDWQTGTCLASDRLDRPYEGMNISEVRGLTEVRKAALRALGATEGSQPPGDLVRWLRKTEQGRKL | failed
9 | MPSLPASAESLLPPTLDESTRLEVLRGLCLLDSPPDPVFDTVAAMAARSLDAEIAVVSLVDEHRQWFKARIGLEARETPRSQAFCAHAIRSDEVMVVPDAQLDPRFCDNPLVLGPPFIRFYAGAPLKLRDGHRIGTLCVIGTSPRPGLDQAAITQLEGLRDLAVLRVENLRSTTYRDGPTGLPNRSRFSEDLDTWLSQRDTAPATTAVAIDVCGSDYFRDMVKALGWEYADGYIALAQRRLAAYLPGGTLLYRLDPTTFGFLAQAEGQRLATLCTKVSKAFTEPLEHQGIPHTAVASIGAVSLQSSYGAADTIRSLTTAVDIARERCLPWSMYERKHDVAQRNTFRLLAALPAALDSSSQLRLHFQPRVDLHDHRCVGVEALLRWQHPMIGPVMPSDFIPMAEKTALINRITAWVIDNGIAQAARWQQQGLDFNLALNVSAADLDRPGFAGLLRRGLDRHKLDPRRLEIEFTESAMIRHPDHLAEQLAAIAALGVHIAIDDFGTGYSNFSYLKQLPASSLKIDQSFIRSLPDSRTDRTLVPAMIQLGHSLGQRVVAEGIESAEAYAQLRAWGCDEGQGYWIAKPMPAAALETWLETPWHEQHAAPVNLLAASLAAARV | failed
10 | MDDLTNLAARLRLLEDREEIRELIARYGPLADSGDAEALSELWVEDGEYAVVGFATAKGRAAIAALIDGQTHRALMADGCAHFLGPATVTVEGDTATARCHSVVFRCVSGTFGSHRVSANRWTFRRTPAGWRAVRRENALLDGSAAARALLQFR | not failed
11 | MGHHHHHHSHSIKPSTNLVFAKVLEKTRHPNANHLNLVKVKANQKVYEIVCGANNFSVHNWVVLAKLNAELANGLKITPRELRGYVSNGMLCAYSEINPQATSFLTSTDLDGILVLDDNYDHYKTPNQIFNLDDVILDLSIPSNRNDLNGYFWIAKELCAYFDFEYVVDATINHRPHKEIIDVRI | failed
12 | MTDNTAVRRRYEKSFTERPGFTEDEIEEIREAFNLLDTDGTGTIDPKEIKCAMQSLGLDAKNPMIFRMIADLEKDGYSSIDFEEFMEVITSKLGNKDTREGIQRIFNLFDDDKTGSISLKNLKRVAKELGETLTDEELRDMIDRADSKGEGEISFEDFYTIMTKKSFL | failed
13 | LENQISFRKALSDSLPNPTYVVNWQGNVISHNSAFEHYFTADYYKNAMLPLENSDSPFKDVFSNAHEVTAETKENRTIYTQVFEIDNGIEKRCINHWHTLCNLPASDNAVYICGWQDITETRDLINALEVEKNKAIKATVAKSQFLATMSHEIRTPISSIMGFL | failed
14 | MKPRISVIIPTYNREELLRRAIESVLDQTFDDFEILVIDGAKSESTRELVRSFGDGRIRYIPQKGKGIANARNLGVSKARGEFIAFLDDDDRWRRDKLELQLELFKVLPQSYGVVYTAFTYYYLEKDKVLGIKHPRASGDVYKHLLKDNITGTSTIMVKRECFKKVGLFREDFVTCEDWDMWLRMAKVCYFGAIDEPLVDYSIHSGQFSFAKYLEGRYKMIEKHLDIKRNPRVLSYHLLQIGVLKLFSGDKRGVEDLLKAFRLNPTIRGNIWDILSSFVDVRTRIYILKFLGRLLEHHHHHH | not failed
15 | MGLKGFAEGGIASIVAGCSTHPLDLIKVRMQLQGESAPIQTNLRPALAFQTSTTVNAPPLRVGVIGVGSRLIREEGMRALFSGVSATVLRQTLYSTTRMGLYDIIKGEWTDPETKTMPLMKKIGAGAIAGAIGAAVGNPADVAMVRMQADGRLPLTDRRNYKSVLDAITQMIRGEGVTSLWRGSSLTINRAMLVTSSQLASYDSVKETILEKGLLKDGLGTHVSASFAAGFVASVASNPVDVIKTRVMNMKVVAGVAPPYKGAVDCALKTVKAEGIMSLYKGFIPTVSRQAPFTVVLFVTLEQVKKLFKDYDF | failed
16 | SPGSAAKGSELSERIESFVETLKRGGGPRSSEEMARETLGLLRQIITDHRWSNAGELMELIRREGRRMTAAQPSETTVGNMVRRVLKIIREEYGRLHGRTDESDQQESLHKLLTSGGLNEDFSFHYAQLQSNIIEAINELLVELEGTMENIAAQALEHIHSNEVIMTIGFSRTVEAFLKEAARKRKFHVIVAECAPFCQGHEMAVNLSKAGIETTVMTDAAIFAVMSRVNKVIIGTKTILANGALRAVTGTHTLALAAKHHSTPLIVCAPMFKLSPQFPNEEDSFHKFVAPEEVLPFTEGDILEKVSVHCPVFDYVPPELITLFISNIGGNAPSYIYRLMSELYHPDDHVL | failed
17 | MPQITLVFISLSGNTLSFVKRLSLYLADNYDYHVKQINIKDLKHETFPVKEEFVAILPTYLEGGNGVDSGDVEILTTPLGEFIAAHGNAQRCLGIIGSGNKNFNHQYCLTAKQYAKRFGFPLLGDFELRGTPDDISRLAQVIMEASSRHSSNDTQTL | failed
18 | MRAGSGQCTGAAMDRLTEMEAFAMVVDQGGFTDAARKMGISKSAVSKHVSALEARLGARLLNRTTRRVSPTEIGLAYYDRARRVLTDAGEADALVTSMQTAPSGHLRLSVATDFGVALLAPILAEFLLDYPDITVTMVLNNRSVELISEGFDMAIRVGDLEDSSLRARKLTETTRRMIASPGYLQRHGRPMKIDDLTDHRLLYHSTQAHGNVWRLLSPSGEPRQVRAPGFLTVNDGHSLLKAAVSGLGIAHLPEFLFAEAMRAGLVEEVLPDLPVETLGIHAIYPAGRFTQPKVRAFIDFLVRRFLEKGPIGN | failed
